Data: doi:10.1101/491043 (bioRxiv, 2018)
“And” between values parts separate entries of the source, which are not always exact repeats. Identical values can stand only once.

Target: the molecule itself

B1: M. tuberculosis ClpX (enzyme)
chain: not shown
  stoichiometry N: 6 and 2
